Read-outs that look alike come from different tables or passages of the source.
How the values were obtained:
[1] = target: T1, T7 DNA ligase (Enterobacteria phage T7?) (UniProt P00969)
T1 sequence: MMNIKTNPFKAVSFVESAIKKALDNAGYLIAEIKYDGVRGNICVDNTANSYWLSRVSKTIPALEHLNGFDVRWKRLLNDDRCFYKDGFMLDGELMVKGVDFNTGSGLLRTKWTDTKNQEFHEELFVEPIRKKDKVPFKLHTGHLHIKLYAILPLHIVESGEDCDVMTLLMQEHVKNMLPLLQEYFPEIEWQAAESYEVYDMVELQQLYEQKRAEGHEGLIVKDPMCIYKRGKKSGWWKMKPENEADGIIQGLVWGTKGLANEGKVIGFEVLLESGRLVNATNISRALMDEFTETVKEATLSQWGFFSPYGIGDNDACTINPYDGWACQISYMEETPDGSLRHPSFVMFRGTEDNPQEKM

[2] = target: T2, T4 DNA ligase (Enterobacteria phage T4?) (UniProt P00970)
T2 sequence: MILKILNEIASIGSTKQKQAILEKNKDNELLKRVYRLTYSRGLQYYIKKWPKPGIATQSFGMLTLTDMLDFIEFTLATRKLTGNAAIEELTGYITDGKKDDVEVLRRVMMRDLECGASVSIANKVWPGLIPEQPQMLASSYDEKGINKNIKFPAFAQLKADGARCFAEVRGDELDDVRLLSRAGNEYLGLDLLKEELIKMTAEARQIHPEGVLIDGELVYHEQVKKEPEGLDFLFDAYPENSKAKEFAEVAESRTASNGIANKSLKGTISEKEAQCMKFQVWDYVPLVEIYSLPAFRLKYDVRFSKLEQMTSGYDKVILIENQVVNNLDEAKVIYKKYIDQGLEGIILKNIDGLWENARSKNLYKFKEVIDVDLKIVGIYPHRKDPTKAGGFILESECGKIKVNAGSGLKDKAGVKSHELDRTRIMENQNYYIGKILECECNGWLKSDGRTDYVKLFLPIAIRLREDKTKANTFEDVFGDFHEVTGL

[3] = system: T3, Human DNA ligase 3 (hLig3 beta) (Homo sapiens), P49916-4
T3 sequence: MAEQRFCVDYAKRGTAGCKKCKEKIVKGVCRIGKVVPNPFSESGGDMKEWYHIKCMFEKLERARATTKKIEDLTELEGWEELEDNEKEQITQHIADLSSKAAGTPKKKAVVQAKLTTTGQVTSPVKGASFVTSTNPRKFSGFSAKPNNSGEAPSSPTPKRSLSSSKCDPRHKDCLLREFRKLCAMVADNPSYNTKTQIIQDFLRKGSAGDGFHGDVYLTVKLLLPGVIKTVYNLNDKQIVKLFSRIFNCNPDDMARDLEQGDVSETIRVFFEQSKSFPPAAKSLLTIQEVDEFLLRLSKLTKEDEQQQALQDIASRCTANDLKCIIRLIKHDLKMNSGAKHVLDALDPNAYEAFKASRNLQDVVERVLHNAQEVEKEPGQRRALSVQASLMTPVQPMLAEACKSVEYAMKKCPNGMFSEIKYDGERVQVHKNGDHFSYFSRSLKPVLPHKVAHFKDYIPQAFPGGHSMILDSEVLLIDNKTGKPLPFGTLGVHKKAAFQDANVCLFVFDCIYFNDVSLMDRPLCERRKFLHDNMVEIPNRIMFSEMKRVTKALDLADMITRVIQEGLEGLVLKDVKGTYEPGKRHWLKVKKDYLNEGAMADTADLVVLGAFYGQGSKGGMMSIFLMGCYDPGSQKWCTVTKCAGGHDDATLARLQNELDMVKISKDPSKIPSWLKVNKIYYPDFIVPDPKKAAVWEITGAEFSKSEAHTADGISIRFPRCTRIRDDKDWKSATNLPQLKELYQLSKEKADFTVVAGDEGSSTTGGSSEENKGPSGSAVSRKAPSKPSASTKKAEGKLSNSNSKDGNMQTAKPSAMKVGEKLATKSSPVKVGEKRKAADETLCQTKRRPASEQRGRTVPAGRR

[4] = target: T4, PBCV-1 DNA ligase (Paramecium bursaria Chlorella virus 1?) (UniProt O41026); settings: T4 ligase buffer, 25 C 1 h; library yield 50%
T4 sequence: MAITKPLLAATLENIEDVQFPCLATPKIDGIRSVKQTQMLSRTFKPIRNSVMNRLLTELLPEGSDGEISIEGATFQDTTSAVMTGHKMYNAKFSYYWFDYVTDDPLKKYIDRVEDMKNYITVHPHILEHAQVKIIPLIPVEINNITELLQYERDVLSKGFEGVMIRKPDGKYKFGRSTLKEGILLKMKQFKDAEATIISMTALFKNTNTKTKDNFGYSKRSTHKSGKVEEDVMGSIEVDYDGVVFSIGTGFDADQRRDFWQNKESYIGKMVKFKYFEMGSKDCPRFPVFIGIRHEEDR

[5] = target: T5, T3 DNA ligase (Enterobacteria phage T3?) (UniProt P07717); settings: T4 ligase buffer, 25 C 1 h
T5 sequence: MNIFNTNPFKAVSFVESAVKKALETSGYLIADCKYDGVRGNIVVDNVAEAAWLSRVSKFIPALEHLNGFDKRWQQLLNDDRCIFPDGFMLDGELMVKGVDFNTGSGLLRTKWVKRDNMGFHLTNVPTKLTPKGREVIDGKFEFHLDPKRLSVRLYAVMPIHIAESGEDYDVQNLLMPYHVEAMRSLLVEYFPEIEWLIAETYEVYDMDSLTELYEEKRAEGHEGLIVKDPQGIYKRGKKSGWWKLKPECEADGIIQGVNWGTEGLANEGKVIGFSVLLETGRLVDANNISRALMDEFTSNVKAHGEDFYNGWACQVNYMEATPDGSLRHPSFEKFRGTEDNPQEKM

NNNN [randomized four-base 5' overhang hairpin library]
activity (% ligation fidelity) ([1]; T4 ligase buffer, 25 C 1 h, library yield 20%): 88.8 | activity (% ligation fidelity) ([1]; with 6% PEG 6000): 77.9 | activity (% ligation fidelity) ([2]; SMRT sequencing, T4 ligase buffer, 10 mM MgCl2, 1 mM ATP, 25 C 1 h): 72.4 | activity (% ligation fidelity) ([2]; with 6% PEG 6000): 66.9 | activity (% ligation fidelity) ([3]; T4 ligase buffer, 25 C 1 h, text p210 prints 56%): 44 | activity (% ligation fidelity) ([3]; with 6% PEG 6000): 49.7 | activity (% ligation fidelity) [4]: 77.2 | activity (% ligation fidelity) [5]: 59.2
